In US20260275304A1, “METHODS AND COMPOSITIONS FOR GLYPHOSATE TOLERANCE IN PLANTS” (Monsanto Technology LLC, priority 2023, published 2026):

Experiments:
transgenic maize plants [1] = assay: Glyphosate spray test on R0 transgenic maize plants; type: in vivo, Zea mays; conditions: for Percent of sprayed plants showing glyphosate injury: 0.75 lb ae/acre POST at V3-V4, seven days after application; for plants injured by the glyphosate spray: injury observed 1 week following treatment
Experimental: Two of the six EPSPS variants had developing plants greater than twenty-five. The extra developing R0 plants from these two variants were utilized in a glyphosate spray test to determine the tolerance provided by the EPSPS variants to a typical post glyphosate application to young plants. The R0 plants were sprayed with glyphosate applied postemergence (POST) at 0.75 lb ae (acid equivalent)/acre (0.84 kg ae/ha) at the V3-V4 stage. Treated plants were evaluated for injury seven days after glyphosate application.

transgenic maize plants [2] = assay: Maize transformation with glyphosate selection, plantlet recovery and quality checks; type: in vivo, Zea mays; conditions: for Number of young plants passing quality control checks: in vivo; for Number of plantlets generated: under glyphosate selection, same amount of starting material
Source text: Maize was used as a model system to test the functionality of the EPSPS variants because of detailed previous characterization of glyphosate tolerance in maize and a suitable transgenic plant generation protocol that relies on glyphosate. Plant transformation vectors were generated in which the native maize EPSPS sequence was used, which includes the native gene promoter elements, the native introns and exons and the native 3′ untranslated region and introduced mutations that corresponded to each of the selected amino acid changes. The native sequence was used to mimic as closely as possible how the selected EPSPS variants would perform if the variants were introduced directly in the genome without the help of strong expression elements. The following variants were selected for testing in a transgenic maize system: TIPS (as a control); TIPS-P126S-M217L-K296R; TIPS-P126S-K296R; T102I-P126S-K296R (where only the T102I change is present); P106S-P126S-K296R (where only the P106S change is present); and P126S-K296R (where neither of the TIPS changes are present).
Transgenic maize plants that expressed each of the six EPSPS variants were generated to determine if the variants conferred glyphosate tolerance to plants. The full DNA sequence encoding TIPS EPSPS (SEQ ID NO:1) was cloned from maize genomic DNA. In this sequence, the promoter and 5′ UTR are nucleotides 1:2556; the chloroplast transit peptide sequence is nucleotides 2557:2742; EXON 1 is nucleotides 2743:2856; INTRON 1 is nucleotides 2857:3384; EXON 2 is nucleotides 3385:3626; INTRON 2 is nucleotides 3627:3725; EXON 3 is nucleotides 3726:3879; INTRON 3 is nucleotides 3880:4152; EXON 4 is nucleotides 4153:4367; INTRON 4 is nucleotides 4368:4877; EXON 5 is nucleotides 4878:4995; INTRON 5 is nucleotides 4996:5155; EXON 6 is nucleotides 5156:5366; INTRON 6 is nucleotides 5367:5446; EXON 7 is nucleotides 5447:5508; INTRON 7 is nucleotides 5509:5617; EXON 8 is nucleotides 5618:5836; and the 3′ UTR is nucleotides 5837:6368. Mutations were then introduced into the EPSPS coding sequence in order to produce each of the six EPSPS variants to be tested. These mutated full genomic DNA sequences were then each cloned as a single expression cassette into plant transformation vectors.
Agrobacterium tumefaciens-mediated plant transformation was performed using methods known in the art. Glyphosate selection was used to select for transgenic events containing the transgene of interest and further screened for only those EPSPS variants that provided effective glyphosate tolerance in a plant cell. While all six EPSPS variants began the transformation process with the same amount of starting maize cellular material, there were differences in the number of small plantlets recovered that were capable of being transplanted to greenhouse soil media (Table 4). Transgenic events were further analyzed to determine transgene copy number. Healthy events with single copy of the transgene of interest were grown in the greenhouse soil media. Only three of the six EPSPS variants had more than one plant surviving. Up to twenty-five of these developing R0 plants were transplanted to larger pots and allowed to grow to maturity for seed collection in the greenhouse.

[3] = tested on: S. cerevisiae strain sKR-024; assay: Mock selection for glyphosate resistance, 50:50 inoculum, flow cytometry; type: cell-based, Saccharomyces cerevisiae
Experimental: Yeast cultures were either started directly from a random colony or from freezer stock and picked in triplicate into appropriate selective media, either YSC-Ura, YSC-Leu, and YSC-Ura-Leu. Cultures were grown for 48 hours at 30° C. to saturation phase. Fully grown yeast cultures were then diluted back to OD 0.01 and allowed to grow for 48 hours at 30° C. in a 96 deep-well plate shaker. Fluorescence was then analyzed via flow cytometry (BD Accuri C6 Flow Cytometer, BD Biosciences) at an excitation of 588 nm and emission of 633 nm for mKate2 RFP. Yeast populations of interest were then gated according to relative size and complexity using a logarithmic plot of side scatter (SSC) and forward scatter (FSC) and spectra were generated outlining RFP fluorescence intensity vs. cell count. FlowJo software was used to analyze all flow cytometry data.
To do so, a mock selection for glyphosate resistance was achieved by transforming wild-type EPSPS into sKR-024 containing an RFP cassette and TIPS into sKR-024 without an RFP cassette to enable flow cytometry tracking of population distributions. A 50:50 starting inoculum of each strain was cultured in yeast minimal media containing 0, 2.5, 5, 7.5, or 10 mM glyphosate.

transgenic maize plants [4] = assay: Greenhouse glyphosate spray test on hybrid (hemizygous) transgenic maize; type: in vivo, Zea mays; conditions: for Average Injury At 1120 g/ha: Roundup PowerMax3, 1× field rate; for Average Injury At 1120 g/ha / Average Injury At 2240 g/ha: 18 days after treatment, scale of 0 to 100; for Average Injury At 2240 g/ha: Roundup PowerMax3, 2× field rate
Experimental: To further evaluate the performance of EPSPS variants for glyphosate tolerance, transgenic maize plants comprising a single copy of the transgene encoding the EPSPS variants TIPS-P126S-M217L-K296R or TIPS-P126S-K296R were grown to maturity. Homozygous transgenic plants were crossed with an inbred line to produce hybrid seeds.
Plants from the hybrid seeds (hemizygous for the transgenes) of two independent transformation events for each of the two variants were grown in the greenhouse for glyphosate spray test. Roundup® PowerMax3, a commercial formulation of glyphosate, was applied at the third leaf stage at two rates: 1120 gram/hectare (1× the field rate) and 2240 gram/hectare (2× the field rate). The controls included an untreated untransformed control without glyphosate treatment, an untransformed control sprayed with glyphosate, and a TIPS positive control both sprayed with glyphosate. Glyphosate herbicide injury (plant stunting, chlorosis, necrosis, malformation, and death) was assessed by visual inspection of the plants 18 days after herbicide treatment. Herbicide injury rate was presented on a scale of 0 to 100 with “0” being no visible crop injury and “100” being complete crop injury or death.

B1: TIPS: Zea mays EPSPS double mutant T102I and P106S, SEQ ID NO:9; positive control (protein)
chain: AGAEEIVLQPIKEISGTVKLPGSKSLSNRILLLAALSEGTTVVDNLLNSEDVHYMLGALRTLGLSVEADKAAKRAVVVGCGGKFPVEDSKEEVQLFLGNAGIAMRSLTAAVTAAGGNATYVLDGVPRMRERPIGDLVVGLKQLGADVDCFLGTDCPPVRVNGIGGLPGGKVKLSGSISSQYLSALLMAAPLALGDVEIEIIDKLISIPYVEMTLRLMERFGVKAEHSDSWDRFYIKGGQKYKSPKNAYVEGDASSASYFLAGAAITGGTVTVEGCGTTSLQGDVKFAEVLEMMGAKVTWTETSVTVTGPPREPFGRKHLKAIDVNMNKMPDVAMTLAVVALFADGPTAIRDVASWRVKETERMVAIRTELTKLGASVEEGPDYCIITPPEKLNVTAIDTYDDHRMAMAFSLAACAEVPVAIRDPGCTRKTFPDYFDVLSTFVKN
modifications: Zea mays
notes: positive control
Percent of sprayed plants showing glyphosate injury (transgenic maize plants [1]): 30% | plants injured by the glyphosate spray (transgenic maize plants [1]): Three of the ten | Number of young plants passing quality control checks (transgenic maize plants [2]): 35 | Number of plantlets generated (transgenic maize plants [2]): 192 | cell count after addition of glyphosate ([3]; 0, 2.5, 5, 7.5 or 10 mM glyphosate): consistent cell count across multiple levels of glyphosate | cell count in the absence of glyphosate ([3]; 0 mM glyphosate): consistently lower cell count of TIPS relative to wild-type EPSPS | tolerance to glyphosate (transgenic maize plants [4]; 2× field rate): minor injuries | Average Injury At 1120 g/ha (transgenic maize plants [4]): 0 | Average Injury At 2240 g/ha (transgenic maize plants [4]): 1.25

B2: TIPS-P126S-K296R: maize EPSPS variant, probably SEQ ID NO:11 (protein)
chain: AGAEEIVLQPIKEISGTVKLPGSKSLSNRILLLAALSEGTTVVDNLLNSEDVHYMLGALRTLGLSVEADKAAKRAVVVGCGGKFPVEDSKEEVQLFLGNAGIAMRSLTAAVTAAGGNATYVLDGVSRMRERPIGDLVVGLKQLGADVDCFLGTDCPPVRVNGIGGLPGGKVKLSGSISSQYLSALLMAAPLALGDVEIEIIDKLISIPYVEMTLRLMERFGVKAEHSDSWDRFYIKGGQKYKSPKNAYVEGDASSASYFLAGAAITGGTVTVEGCGTTSLQGDVKFAEVLEMMGARVTWTETSVTVTGPPREPFGRKHLKAIDVNMNKMPDVAMTLAVVALFADGPTAIRDVASWRVKETERMVAIRTELTKLGASVEEGPDYCIITPPEKLNVTAIDTYDDHRMAMAFSLAACAEVPVAIRDPGCTRKTFPDYFDVLSTFVKN
modifications: Zea mays
Percent of sprayed plants showing glyphosate injury (transgenic maize plants [1]): 0% | plants injured by the glyphosate spray (transgenic maize plants [1]): none | Number of young plants passing quality control checks (transgenic maize plants [2]): 38 | Number of plantlets generated (transgenic maize plants [2]): 190 | tolerance to glyphosate (transgenic maize plants [4]; 2× field rate): minor injuries | Average Injury At 1120 g/ha (transgenic maize plants [4]): 0 | Average Injury At 2240 g/ha (transgenic maize plants [4]): 17 | tolerance to glyphosate (transgenic maize plants [4]; equivalent 1× field dose): excellent tolerance
